The values below come from patent US20260001928A1 (CORTERIA PHARMACEUTICALS, priority 2022, published 2026).

For test [1], the target named is T1, CRF1R (corticotropin-releasing factor receptor 1), on the CRF1R-overexpression CHO-K1 cell line clone 2 (UniProt P34998 24-415, limits assumed).
T1 sequence (looked up): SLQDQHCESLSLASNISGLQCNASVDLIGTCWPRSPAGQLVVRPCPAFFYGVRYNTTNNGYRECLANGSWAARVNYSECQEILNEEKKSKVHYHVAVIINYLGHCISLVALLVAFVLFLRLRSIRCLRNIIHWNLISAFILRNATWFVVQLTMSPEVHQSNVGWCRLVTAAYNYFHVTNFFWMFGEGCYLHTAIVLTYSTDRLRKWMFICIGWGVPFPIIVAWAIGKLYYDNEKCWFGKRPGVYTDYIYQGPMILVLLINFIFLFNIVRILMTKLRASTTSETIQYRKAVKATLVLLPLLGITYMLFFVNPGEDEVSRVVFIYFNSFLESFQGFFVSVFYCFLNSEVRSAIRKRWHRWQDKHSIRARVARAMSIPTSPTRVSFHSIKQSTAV
The test can be described thus: cell-based or functional assay.

The target in test [2] is Rat CRF2 a (corticotropin-releasing factor receptor 2), on the A7R5 rat aortic smooth muscle cell line (rat, UniProt P47866 20-411). In words: cell-based or functional assay.

*1 amine or outer side, *2 acyl side, *3 side chain or, on linkers, in order; H or OH if unused. Where no end group is shown, it is not given here. Side-chain parts run from the residue outwards. [ ]: non-standard residue; d: D form. The star is where a group is joined. C20 diacid = O=C(O)CCCCCCCCCCCCCCCCCCC(=O)*; γGlu = O=C(O)[C@H](CCC(=O)[*:2])N[*:1]; NMeI = CC[C@H](C)[C@H](NC)C(=O)O; Pentanoyl = CCCCC(=O)*; AEEA = NCCOCCOCC(=O)O; Aib = CC(C)(N)C(=O)O

Chain of Rat CRF2 a (corticotropin-releasing factor receptor 2), on the A7R5 rat aortic smooth muscle cell line (P47866 20-411): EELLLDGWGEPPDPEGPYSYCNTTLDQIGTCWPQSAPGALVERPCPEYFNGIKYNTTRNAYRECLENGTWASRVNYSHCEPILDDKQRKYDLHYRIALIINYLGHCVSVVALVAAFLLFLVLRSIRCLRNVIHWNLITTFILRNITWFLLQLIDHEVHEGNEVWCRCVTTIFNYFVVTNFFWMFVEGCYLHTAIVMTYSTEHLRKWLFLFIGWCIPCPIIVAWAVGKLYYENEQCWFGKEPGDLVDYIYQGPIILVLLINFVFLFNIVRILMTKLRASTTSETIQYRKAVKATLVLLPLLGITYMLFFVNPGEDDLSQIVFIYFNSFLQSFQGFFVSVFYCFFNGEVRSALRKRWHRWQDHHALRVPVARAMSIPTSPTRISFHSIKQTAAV

B1: peptide of SEQ ID NO: 238 (peptide)
peptide: Ac-IVLSLD[dV]PIKLK([AEEA-AEEA-γGlu-C20 diacid])KILLEQEKQKKQREQAETN[Aib]QILAQV-NH2
SMILES: CC[C@H](C)[C@H](NC(C)=O)C(=O)N[C@H](C(=O)N[C@@H](CC(C)C)C(=O)N[C@@H](CO)C(=O)N[C@@H](CC(C)C)C(=O)N[C@@H](CC(=O)O)C(=O)N[C@@H](C(=O)N1CCC[C@H]1C(=O)N[C@H](C(=O)N[C@@H](CCCCN)C(=O)N[C@@H](CC(C)C)C(=O)N[C@@H](CCCCNC(=O)COCCOCCNC(=O)COCCOCCNC(=O)CC[C@H](NC(=O)CCCCCCCCCCCCCCCCCCC(=O)O)C(=O)O)C(=O)N[C@@H](CCCCN)C(=O)N[C@H](C(=O)N[C@@H](CC(C)C)C(=O)N[C@@H](CC(C)C)C(=O)N[C@@H](CCC(=O)O)C(=O)N[C@@H](CCC(N)=O)C(=O)N[C@@H](CCC(=O)O)C(=O)N[C@@H](CCCCN)C(=O)N[C@@H](CCC(N)=O)C(=O)N[C@@H](CCCCN)C(=O)N[C@@H](CCCCN)C(=O)N[C@@H](CCC(N)=O)C(=O)N[C@@H](CCCNC(=N)N)C(=O)N[C@@H](CCC(=O)O)C(=O)N[C@@H](CCC(N)=O)C(=O)N[C@@H](C)C(=O)N[C@@H](CCC(=O)O)C(=O)N[C@H](C(=O)N[C@@H](CC(N)=O)C(=O)NC(C)(C)C(=O)N[C@@H](CCC(N)=O)C(=O)N[C@H](C(=O)N[C@@H](CC(C)C)C(=O)N[C@@H](C)C(=O)N[C@@H](CCC(N)=O)C(=O)N[C@H](C(N)=O)C(C)C)[C@@H](C)CC)[C@@H](C)O)[C@@H](C)CC)[C@@H](C)CC)C(C)C)C(C)C
Regarding B1, in test [1], the “EC50 [nM] (cAMP, CRF1R-overexpression CHO-K1 cells)” value is greater than 250 nM and the “Emax (% I) (cAMP, 100% = Sauvagine at 100 nM)” value (shortened to “Emax (% I)”) came to 12 % I. In addition, the “EC50 [nM] 0% HSA (cAMP, A7R5 rat aortic smooth muscle cells)” value (from here on “EC50 [nM] 0% HSA”) in test [2] came to 0.09 nM.

B2: peptide of SEQ ID NO: 240 (peptide)
peptide: Ac-IVLSLD[dV]PIKLK([AEEA-AEEA-γGlu-C20 diacid])KILLEQEKQKAQREQAETN[Aib]QILAQV-NH2
SMILES: CC[C@H](C)[C@H](NC(C)=O)C(=O)N[C@H](C(=O)N[C@@H](CC(C)C)C(=O)N[C@@H](CO)C(=O)N[C@@H](CC(C)C)C(=O)N[C@@H](CC(=O)O)C(=O)N[C@@H](C(=O)N1CCC[C@H]1C(=O)N[C@H](C(=O)N[C@@H](CCCCN)C(=O)N[C@@H](CC(C)C)C(=O)N[C@@H](CCCCNC(=O)COCCOCCNC(=O)COCCOCCNC(=O)CC[C@H](NC(=O)CCCCCCCCCCCCCCCCCCC(=O)O)C(=O)O)C(=O)N[C@@H](CCCCN)C(=O)N[C@H](C(=O)N[C@@H](CC(C)C)C(=O)N[C@@H](CC(C)C)C(=O)N[C@@H](CCC(=O)O)C(=O)N[C@@H](CCC(N)=O)C(=O)N[C@@H](CCC(=O)O)C(=O)N[C@@H](CCCCN)C(=O)N[C@@H](CCC(N)=O)C(=O)N[C@@H](CCCCN)C(=O)N[C@@H](C)C(=O)N[C@@H](CCC(N)=O)C(=O)N[C@@H](CCCNC(=N)N)C(=O)N[C@@H](CCC(=O)O)C(=O)N[C@@H](CCC(N)=O)C(=O)N[C@@H](C)C(=O)N[C@@H](CCC(=O)O)C(=O)N[C@H](C(=O)N[C@@H](CC(N)=O)C(=O)NC(C)(C)C(=O)N[C@@H](CCC(N)=O)C(=O)N[C@H](C(=O)N[C@@H](CC(C)C)C(=O)N[C@@H](C)C(=O)N[C@@H](CCC(N)=O)C(=O)N[C@H](C(N)=O)C(C)C)[C@@H](C)CC)[C@@H](C)O)[C@@H](C)CC)[C@@H](C)CC)C(C)C)C(C)C
For the molecule B2, in test [1], the “EC50 [nM] (cAMP, CRF1R-overexpression CHO-K1 cells)” value was greater than 250 nM and the “Emax (% I)” value stood at 4 % I. In test [2], the “EC50 [nM] 0% HSA” value came out at 2.3 nM.

B3: peptide of SEQ ID NO: 236 (peptide)
peptide: Ac-IVLSLD[dV]PIKLK([AEEA-AEEA-γGlu-C20 diacid])KILLEQEKQKEQREQAETN[Aib]QILAQV-NH2
SMILES: CC[C@H](C)[C@H](NC(C)=O)C(=O)N[C@H](C(=O)N[C@@H](CC(C)C)C(=O)N[C@@H](CO)C(=O)N[C@@H](CC(C)C)C(=O)N[C@@H](CC(=O)O)C(=O)N[C@@H](C(=O)N1CCC[C@H]1C(=O)N[C@H](C(=O)N[C@@H](CCCCN)C(=O)N[C@@H](CC(C)C)C(=O)N[C@@H](CCCCNC(=O)COCCOCCNC(=O)COCCOCCNC(=O)CC[C@H](NC(=O)CCCCCCCCCCCCCCCCCCC(=O)O)C(=O)O)C(=O)N[C@@H](CCCCN)C(=O)N[C@H](C(=O)N[C@@H](CC(C)C)C(=O)N[C@@H](CC(C)C)C(=O)N[C@@H](CCC(=O)O)C(=O)N[C@@H](CCC(N)=O)C(=O)N[C@@H](CCC(=O)O)C(=O)N[C@@H](CCCCN)C(=O)N[C@@H](CCC(N)=O)C(=O)N[C@@H](CCCCN)C(=O)N[C@@H](CCC(=O)O)C(=O)N[C@@H](CCC(N)=O)C(=O)N[C@@H](CCCNC(=N)N)C(=O)N[C@@H](CCC(=O)O)C(=O)N[C@@H](CCC(N)=O)C(=O)N[C@@H](C)C(=O)N[C@@H](CCC(=O)O)C(=O)N[C@H](C(=O)N[C@@H](CC(N)=O)C(=O)NC(C)(C)C(=O)N[C@@H](CCC(N)=O)C(=O)N[C@H](C(=O)N[C@@H](CC(C)C)C(=O)N[C@@H](C)C(=O)N[C@@H](CCC(N)=O)C(=O)N[C@H](C(N)=O)C(C)C)[C@@H](C)CC)[C@@H](C)O)[C@@H](C)CC)[C@@H](C)CC)C(C)C)C(C)C
On to B3, for which, in test [1], the “EC50 [nM] (cAMP, CRF1R-overexpression CHO-K1 cells)” value is greater than 250 nM and the “Emax (% I)” value was 7 % I. In test [2], the “EC50 [nM] 0% HSA” value was 2.81 nM.

B4: peptide of SEQ ID NO: 237 (peptide)
peptide: [NMeI]VLSLD[dV]PIKLK([AEEA-AEEA-γGlu-C20 diacid])KILLEQEKQKEQREQAETN[Aib]QILAQV-NH2
modifications: N-terminus assumed
SMILES: CC[C@H](C)[C@H](NC)C(=O)N[C@H](C(=O)N[C@@H](CC(C)C)C(=O)N[C@@H](CO)C(=O)N[C@@H](CC(C)C)C(=O)N[C@@H](CC(=O)O)C(=O)N[C@@H](C(=O)N1CCC[C@H]1C(=O)N[C@H](C(=O)N[C@@H](CCCCN)C(=O)N[C@@H](CC(C)C)C(=O)N[C@@H](CCCCNC(=O)COCCOCCNC(=O)COCCOCCNC(=O)CC[C@H](NC(=O)CCCCCCCCCCCCCCCCCCC(=O)O)C(=O)O)C(=O)N[C@@H](CCCCN)C(=O)N[C@H](C(=O)N[C@@H](CC(C)C)C(=O)N[C@@H](CC(C)C)C(=O)N[C@@H](CCC(=O)O)C(=O)N[C@@H](CCC(N)=O)C(=O)N[C@@H](CCC(=O)O)C(=O)N[C@@H](CCCCN)C(=O)N[C@@H](CCC(N)=O)C(=O)N[C@@H](CCCCN)C(=O)N[C@@H](CCC(=O)O)C(=O)N[C@@H](CCC(N)=O)C(=O)N[C@@H](CCCNC(=N)N)C(=O)N[C@@H](CCC(=O)O)C(=O)N[C@@H](CCC(N)=O)C(=O)N[C@@H](C)C(=O)N[C@@H](CCC(=O)O)C(=O)N[C@H](C(=O)N[C@@H](CC(N)=O)C(=O)NC(C)(C)C(=O)N[C@@H](CCC(N)=O)C(=O)N[C@H](C(=O)N[C@@H](CC(C)C)C(=O)N[C@@H](C)C(=O)N[C@@H](CCC(N)=O)C(=O)N[C@H](C(N)=O)C(C)C)[C@@H](C)CC)[C@@H](C)O)[C@@H](C)CC)[C@@H](C)CC)C(C)C)C(C)C
With B4, in test [1], the “EC50 [nM] (cAMP, CRF1R-overexpression CHO-K1 cells)” value was greater than 250 nM and the “Emax (% I)” value came to 6 % I. The “EC50 [nM] 0% HSA” value in test [2] was determined as 0.63 nM.

B5: peptide of SEQ ID NO: 235 (peptide)
peptide: Pentanoyl-VLSLD[dV]PIKLK([AEEA-γGlu-C20 diacid])KILLEQEKQKKQREQAETN[Aib]QILAQV-NH2
SMILES: CCCCC(=O)N[C@H](C(=O)N[C@@H](CC(C)C)C(=O)N[C@@H](CO)C(=O)N[C@@H](CC(C)C)C(=O)N[C@@H](CC(=O)O)C(=O)N[C@@H](C(=O)N1CCC[C@H]1C(=O)N[C@H](C(=O)N[C@@H](CCCCN)C(=O)N[C@@H](CC(C)C)C(=O)N[C@@H](CCCCNC(=O)COCCOCCNC(=O)CC[C@H](NC(=O)CCCCCCCCCCCCCCCCCCC(=O)O)C(=O)O)C(=O)N[C@@H](CCCCN)C(=O)N[C@H](C(=O)N[C@@H](CC(C)C)C(=O)N[C@@H](CC(C)C)C(=O)N[C@@H](CCC(=O)O)C(=O)N[C@@H](CCC(N)=O)C(=O)N[C@@H](CCC(=O)O)C(=O)N[C@@H](CCCCN)C(=O)N[C@@H](CCC(N)=O)C(=O)N[C@@H](CCCCN)C(=O)N[C@@H](CCCCN)C(=O)N[C@@H](CCC(N)=O)C(=O)N[C@@H](CCCNC(=N)N)C(=O)N[C@@H](CCC(=O)O)C(=O)N[C@@H](CCC(N)=O)C(=O)N[C@@H](C)C(=O)N[C@@H](CCC(=O)O)C(=O)N[C@H](C(=O)N[C@@H](CC(N)=O)C(=O)NC(C)(C)C(=O)N[C@@H](CCC(N)=O)C(=O)N[C@H](C(=O)N[C@@H](CC(C)C)C(=O)N[C@@H](C)C(=O)N[C@@H](CCC(N)=O)C(=O)N[C@H](C(N)=O)C(C)C)[C@@H](C)CC)[C@@H](C)O)[C@@H](C)CC)[C@@H](C)CC)C(C)C)C(C)C
Consider B5, for which, in test [1], the “EC50 [nM] (cAMP, CRF1R-overexpression CHO-K1 cells)” value is greater than 250 nM and the “Emax (% I)” value stood at 27 % I. In test [2], the “EC50 [nM] 0% HSA” value was found to be 0.17 nM.
